Laboratory results taken from paper PMC8881610.

Molecular target: human GLP-1R, wild-type, on cells (human) (UniProt P43220)
Sequence (P43220 24-463): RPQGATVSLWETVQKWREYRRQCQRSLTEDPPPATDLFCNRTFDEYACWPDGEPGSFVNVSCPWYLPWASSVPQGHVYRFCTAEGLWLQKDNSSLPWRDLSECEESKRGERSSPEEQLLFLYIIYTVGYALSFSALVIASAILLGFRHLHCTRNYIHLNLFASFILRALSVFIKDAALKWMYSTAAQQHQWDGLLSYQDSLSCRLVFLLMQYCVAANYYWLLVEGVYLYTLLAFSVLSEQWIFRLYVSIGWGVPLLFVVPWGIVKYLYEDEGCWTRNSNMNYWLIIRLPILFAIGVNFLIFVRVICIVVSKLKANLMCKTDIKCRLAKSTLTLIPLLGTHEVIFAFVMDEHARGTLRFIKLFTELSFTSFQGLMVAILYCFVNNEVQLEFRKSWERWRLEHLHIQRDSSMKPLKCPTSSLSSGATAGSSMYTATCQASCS

cAMP response, EC50, 0.1% BSA [pM]	Substance	other [pM]
4.66	non-acylated tirzepatide (peptide)	0.9
	tirzepatide (peptide)	3.05
